Measurements from PMC4560640.

Biological target: base subcomplex, heterologously expressed in E. coli (S. cerevisiae) (UniProt P38764)

## Ubp6, wild type (from UniProt P43593 1-499) (enzyme)
  Ub-AMC cleavage activity of Ubp6 with purified base against Ubp6 alone: 300 fold
